Reference: patent US20260265717A1

T1: MG64-1 Cas12k expressed with an N-terminal Twin Strep tag and an HRV3C protease site and a C-terminal 2xNLS tag
T1 sequence: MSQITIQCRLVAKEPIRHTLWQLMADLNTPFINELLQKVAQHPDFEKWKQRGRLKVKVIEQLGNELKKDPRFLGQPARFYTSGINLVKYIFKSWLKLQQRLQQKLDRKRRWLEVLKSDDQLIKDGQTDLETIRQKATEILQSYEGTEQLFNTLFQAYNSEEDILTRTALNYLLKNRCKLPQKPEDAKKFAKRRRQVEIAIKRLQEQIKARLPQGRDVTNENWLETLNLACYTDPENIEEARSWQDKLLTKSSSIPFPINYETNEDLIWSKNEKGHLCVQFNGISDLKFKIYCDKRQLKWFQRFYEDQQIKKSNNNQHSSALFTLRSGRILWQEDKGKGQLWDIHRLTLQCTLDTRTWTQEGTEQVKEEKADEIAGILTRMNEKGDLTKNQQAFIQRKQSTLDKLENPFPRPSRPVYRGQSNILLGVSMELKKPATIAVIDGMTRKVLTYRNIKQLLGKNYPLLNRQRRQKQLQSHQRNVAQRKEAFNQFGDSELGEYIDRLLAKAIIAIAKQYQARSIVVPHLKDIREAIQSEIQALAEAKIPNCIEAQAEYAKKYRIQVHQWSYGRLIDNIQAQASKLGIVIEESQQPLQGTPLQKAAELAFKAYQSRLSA

B1: MG64-1 TnsC (protein)
chain: MTIQEAQAVAKQLGDIQLTSEKLQAEIQRLNRKTVVTLSHVEALHNWLEGKRQAKQSCRVVGESRTGKTIACNAYRLRHKPIQTPGKPPIVPVVYIQVTQECGAKDLFGAIIEHLKYQMTKGTVAEIRQRTFKVLQRCGVEMLIIDEADRLKPKTFAEVRDIFDKLNIAVVLVGTDRLDAVIKRDEQVYNRFRACHRFGKLAGDEFSQTVNIWERQVLKLPVASNLSSKRMLKILGQATGGYLGLLDMILRESAIRALKKGLQKIDLDTLKEVTEEYR
B2: MG64-1 TniQ (protein)
chain: MESREIQPWWFLVEPLAGESISHFLGRFRRENELTVTMMGKITGLGGTITRWEKFRFIPIPTEEELTALSEVVQVEVERLWQMFPPKGVGMKHQPIRLCGACYEEERCHKIEWQLKTTQFCSQHGLTLLSECPNCGARFQFPALWVNGWCHRCFLTFGEMVEGQSNKKKYL

Target: T1, MG64-1 Cas12k expressed with an N-terminal Twin Strep tag and an HRV3C protease site and a C-terminal 2xNLS tag
Experiment: mass spectrometry of tryptic peptides from SEC-eluted Cas12k Strep pulldown complex; emPAI is a relative measure of abundance

| Binder | emPAI |
| --- | --- |
| B1 | 2.43 |
| B2 | 1.61 |
